Measured values reported in patent US20130189255A1, “FUSIONS AND CONJUGATES OF INSULINOTROPIC AGENTS” (GLAXO GROUP LIMITED, priority 2008, published 2013).

Target: human GLP-1 receptor (human) (UniProt P43220)
Test: cell-based or functional assay

Sequence of human GLP-1 receptor (human) (P43220 24-463): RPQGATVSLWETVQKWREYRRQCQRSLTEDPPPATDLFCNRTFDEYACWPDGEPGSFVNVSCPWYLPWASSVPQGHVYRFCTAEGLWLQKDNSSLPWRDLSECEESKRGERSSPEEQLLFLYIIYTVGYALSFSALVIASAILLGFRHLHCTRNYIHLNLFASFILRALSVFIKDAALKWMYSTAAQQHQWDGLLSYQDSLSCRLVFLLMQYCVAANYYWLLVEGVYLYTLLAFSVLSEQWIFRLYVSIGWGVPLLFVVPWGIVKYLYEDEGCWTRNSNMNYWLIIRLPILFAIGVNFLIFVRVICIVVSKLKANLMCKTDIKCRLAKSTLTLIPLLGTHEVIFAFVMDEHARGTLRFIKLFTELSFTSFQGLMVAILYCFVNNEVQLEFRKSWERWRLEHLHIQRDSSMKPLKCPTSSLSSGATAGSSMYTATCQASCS

- GLP-1R BA (10 uM albumin) EC50 (pM) n = 2 (CRE-luciferase reporter in CHO 6CRE GLP1R cells): 19 pM
- GLP-1R BA EC50 (pM) n = 3 (CRE-luciferase reporter in CHO 6CRE GLP1R cells): 21 pM
Substance: GLP-1 7-36 (from UniProt P01275 21-180) (peptide)
